These are literature values, as cited in PMC3229669.

This data set deals with histone H4 N-terminal tail (UniProt P62805).

Sequence of Spt16 NT domain (O94267 1-442): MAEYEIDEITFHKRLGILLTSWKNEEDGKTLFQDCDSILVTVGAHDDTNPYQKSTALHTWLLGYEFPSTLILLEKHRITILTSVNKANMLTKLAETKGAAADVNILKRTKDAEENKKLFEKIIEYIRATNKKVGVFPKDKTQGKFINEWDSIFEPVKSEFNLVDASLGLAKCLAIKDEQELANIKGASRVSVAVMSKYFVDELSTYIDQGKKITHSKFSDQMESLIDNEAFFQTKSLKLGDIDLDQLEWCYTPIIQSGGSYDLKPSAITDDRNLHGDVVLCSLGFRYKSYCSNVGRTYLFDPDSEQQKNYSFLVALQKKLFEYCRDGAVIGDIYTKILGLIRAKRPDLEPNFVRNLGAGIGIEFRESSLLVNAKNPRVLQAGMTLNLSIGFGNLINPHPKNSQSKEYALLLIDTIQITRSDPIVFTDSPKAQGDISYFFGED

As to Spt16 NT domain (from UniProt O94267), the Kd is 3000 nM.
